B1: Kelch-like protein 12 (Homo sapiens), Q53G59 (parent)
chain: MGGIMAPKDIMTNTHAKSILNSMNSLRKSNTLCDVTLRVEQKDFPAHRIVLAACSDYFCAMFTSELSEKGKPYVDIQGLTASTMEILLDFVYTETVHVTVENVQELLPAACLLQLKGVKQACCEFLESQLDPSNCLGIRDFAETHNCVDLMQAAEVFSQKHFPEVVQHEEFILLSQGEVEKLIKCDEIQVDSEEPVFEAVINWVKHAKKEREESLPNLLQYVRMPLLTPRYITDVIDAEPFIRCSLQCRDLVDEAKKFHLRPELRSQMQGPRTRARLGANEVLLVVGGFGSQQSPIDVVEKYDPKTQEWSFLPSITRKRRYVASVSLHDRIYVIGGYDGRSRLSSVECLDYTADEDGVWYSVAPMNVRRGLAGATTLGDMIYVSGGFDGSRRHTSMERYDPNIDQWSMLGDMQTAREGAGLVVASGVIYCLGGYDGLNILNSVEKYDPHTGHWTNVTPMATKRSGAGVALLNDHIYVVGGFDGTAHLSSVEAYNIRTDSWTTVTSMTTPRCYVGATVLRGRLYAIAGYDGNSLLSSIECYDPIIDSWEVVTSMGTQRCDAGVCVLREK
B2: Kelch repeat and BTB domain-containing protein 8 (Homo sapiens), Q8NFY9 (parent)
chain: MAASADLSKSSPTPNGIPSSDPASDAMDPFHACSILKQLKTMYDEGQLTDIVVEVDHGKTFSCHRNVLAAISPYFRSMFTSGLTESTQKEVRIVGVEAESMDLVLNYAYTSRVILTEANVQALFTAASIFQIPSIQDQCAKYMISHLDPQNSIGVFIFADHYGHQELGDRSKEYIRKKFLCVTKEQEFLQLTKDQLISILDSDDLNVDREEHVYESIIRWFEHEQNEREVHLPEIFAKCIRFPLMEDTFIEKIPPQFAQAIAKSCVEKGPSNTNGCTQRLGMTASEMIICFDAAHKHSGKKQTVPCLDIVTGRVFKLCKPPNDLREVGILVSPDNDIYIAGGYRPSSSEVSIDHKAENDFWMYDHSTNRWLSKPSLLRARIGCKLVYCCGKMYAIGGRVYEGDGRNSLKSVECYDSRENCWTTVCAMPVAMEFHNAVEYKEKIYVLQGEFFLFYEPQKDYWGFLTPMTVPRIQGLAAVYKDSIYYIAGTCGNHQRMFTVEAYDIELNKWTRKKDFPCDQSINPYLKLVLFQNKLHLFVRATQVTVEEHVFRTSRKNSLYQYDDIADQWMKVYETPDRLWDLGRHFECAVAKLYPQCLQKVL

Variants of: B1
Details: with fxl17_human FBXL17, Q9UF56
Target sequence in this assay (Q9UF56 whole entry): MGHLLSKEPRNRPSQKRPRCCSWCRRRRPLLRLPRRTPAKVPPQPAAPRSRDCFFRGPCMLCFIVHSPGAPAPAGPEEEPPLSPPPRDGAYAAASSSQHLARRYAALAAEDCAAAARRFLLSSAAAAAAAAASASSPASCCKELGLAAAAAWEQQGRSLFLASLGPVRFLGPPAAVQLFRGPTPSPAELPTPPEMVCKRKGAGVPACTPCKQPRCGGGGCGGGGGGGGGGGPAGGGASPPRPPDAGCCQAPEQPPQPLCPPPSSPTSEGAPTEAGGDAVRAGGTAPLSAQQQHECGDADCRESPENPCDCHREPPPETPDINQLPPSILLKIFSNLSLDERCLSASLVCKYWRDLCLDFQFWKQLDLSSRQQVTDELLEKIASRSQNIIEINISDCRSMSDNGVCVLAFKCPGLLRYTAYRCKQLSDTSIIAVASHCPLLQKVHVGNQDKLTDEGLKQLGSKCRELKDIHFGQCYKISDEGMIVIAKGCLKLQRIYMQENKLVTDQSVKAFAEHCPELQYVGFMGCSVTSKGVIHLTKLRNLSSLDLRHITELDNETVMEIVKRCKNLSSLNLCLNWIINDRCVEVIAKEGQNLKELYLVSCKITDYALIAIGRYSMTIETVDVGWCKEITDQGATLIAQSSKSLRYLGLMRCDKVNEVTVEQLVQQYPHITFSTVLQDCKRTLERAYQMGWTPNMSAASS

Row | Variant | effect of a mutation on the interaction
1 | R27A | causing an interaction
2 | R27D | with no effect
3 | I49D | causing an interaction
4 | I49A | causing an interaction
5 | R27A;A60K | with no effect
6 | C33F | causing an interaction
7 | N24K | causing an interaction
8 | V50A | causing an interaction
9 | C33F;A60K | with no effect
10 | N24K;A60K | with no effect
11 | S67E | disrupting interaction strength
12 | S67A | with no effect
13 | V50A;A60K | with no effect

Variants of: B1
Details: with cul3_human CUL3, Q13618

Row | Variant | effect of a mutation on the interaction
14 | V50A | with no effect

Variants of: B2
Details: with fxl17_human FBXL17, Q9UF56
Target sequence in this assay (Q9UF56 whole entry): as above

Row | Variant | effect of a mutation on the interaction
15 | K40A | with no effect
16 | K40D | increasing interaction strength
17 | V67D | disrupting interaction strength
18 | V67A | increasing interaction strength
19 | L39D | disrupting interaction strength
20 | L39A | decreasing interaction strength
21 | Y43A | increasing interaction strength
22 | Y43D | disrupting interaction strength

Reference: IntAct's records for PubMed 30190310
